Test results taken from patent US20150132307A1.
Substitutions are numbered along the chain they refer to.

B1: <TWEAK> 305chi (antibody, human IgG1, kappa, V domains shown)
VH: QEQLVESGGGLVQPGGSLTLSCKASGFDFSTYYMSWVRQAPGKGLEWIGTVYVRQGTTYYASWLNGRFTISSDNAQNTVDLKMNSLTAADTATYFCAKGGYNYDDAFVIWGPGTLVTVSF
VL: AIEMTQTPFSVSAAVGGTVTINCQASQNIYSNLAWYQQKPGQPPKLLMYTASYLASGVPSRFKGSGSRTEYTLTISGVQCADAATYYCQTAYYNSRPDTVAFGGGTEVVVKR
B2: Humanized <TWEAK> 305- antibody 27 (antibody, V domains shown)
VH: QVQLVQSGAEVKKPGSSVKVSCKASGFDFSTYYMSWVRQAPGQGLEWMGTVYVRQGTTYYASWLNGRVTITADESTSTAYMELSSLRSEDTAVYYCARGGYNYDDAFVIWGQGTLVTVSS
VL: DIQMTQSPSSVSASVGDRVTITCQASQNIYSNLAWYQQKPGKAPKLLIYTASYLASGVPSRFSGSGSGTDYTLTISSLQPEDFATYYCQTAYYNSRPDTVAFGGGTKVEIK
B3: Humanized <TWEAK> 305- antibody 31 (antibody, V domains shown)
VH: EVQLLESGGGLVQPGGSLTLSCAASGFDFSTYYMSWVRQAPGKGLEWVSTVYVRQGTTYYASWLNGRFTISRDNSKNTLYLQMNSLRAEDTAVYYCAKGGYNYDDAFVIWGQGTLVTVSS
VL: B2 VL with D1A, Q3R, V11F, V15T, S77C, P80S
B4: Humanized <TWEAK> 305- antibody 29 (antibody, V domains shown)
VH: B3 VH with T19R, Y80D
VL: B2 VL
B5: Humanized <TWEAK> 305- antibody 32 (antibody, V domains shown)
VH: B3 VH with T19R, Y80D
VL: B2 VL with S10T, V11L, D70E, Y71F, E81D
B6: Humanized <TWEAK> 305- antibody 30 (antibody, V domains shown)
VH: B3 VH with T19R, R87T
VL: B2 VL with Y71F
B7: Humanized <TWEAK> 305- antibody 28 (antibody, V domains shown)
VH: B3 VH
VL: B2 VL
B8: Humanized <TWEAK> 305- antibody 33 (antibody, V domains shown)
VH: B2 VH
VL: B2 VL with D1A, Q3R, V11F, V15T, S77C, P80S
B9: Humanized <TWEAK> 305- antibody 34 (antibody, V domains shown)
VH: B3 VH with T19R
VL: B2 VL with D1A, Q3R, V11F, V15T, S77C, P80S

These binders were tested against Biotinylated murine soluble TWEAK (amino acids 81-225 of SEQ ID NO: 69) (murine) (UniProt O54907) (assay: SPR (Biacore 2000), biotinylated soluble TWEAK on streptavidin chip, antibody 100 nM as analyte, 25 C).

Row | Binder | t/2 diss [min] 25° C.
1 | B1 | 39 min

These binders were tested against Biotinylated murine soluble TWEAK (amino acids 81-225 of SEQ ID NO: 69) (murine) (UniProt O54907) (assay: SPR (Biacore), further experiment, biotinylated soluble TWEAK on streptavidin chip, 25 C).

Row | Binder | t/2 diss [min] 25° C.
2 | B1 | 41 min

The binders below were run against Biotinylated murine soluble TWEAK (amino acids 81-225 of SEQ ID NO: 69) (murine) (UniProt O54907) (assay: SPR (Biacore), biotinylated soluble TWEAK on streptavidin chip, 37 C).

Row | Binder | Biacore t/2 diss. [min] 37° C. murine
3 | B2 | 19 min
4 | B3 | 19 min
5 | B4 | 21 min
6 | B5 | 20 min
7 | B6 | 15 min
8 | B7 | 17 min
9 | B8 | 15 min
10 | B9 | 20 min

What follows are binders tested against Biotinylated murine soluble TWEAK (amino acids 81-225 of SEQ ID NO: 69) (murine) (UniProt O54907) (assay: SPR (Biacore), biotinylated soluble TWEAK on streptavidin chip, 25 C).

Row | Binder | Biacore t/2 diss. [min] 25° C. murine
11 | B2 | 19 min
12 | B3 | 19 min
13 | B4 | 22 min
14 | B5 | 17 min
15 | B6 | 17 min
16 | B7 | 19 min
17 | B8 | 19 min
18 | B9 | 22 min
